target: T1, HLA-A*02:01 (human); assay: UV-ligand exchange ELISA (anti-β2m), peptide exchange yield grade
T1 construct: MHC class I monomer made peptide-receptive by UV cleavage of a UV-sensitive ligand; also called peptide-receptive MHC molecules
Source text: Candidate peptides for T cell based therapies according to the present invention were further tested for their MHC binding capacity (affinity). The individual peptide-MHC complexes were produced by UV-ligand exchange, where a UV-sensitive peptide is cleaved upon UV-irradiation, and exchanged with the peptide of interest as analyzed. Only peptide candidates that can effectively bind and stabilize the peptide-receptive MHC molecules prevent dissociation of the MHC complexes. To determine the yield of the exchange reaction, an ELISA was performed based on the detection of the light chain (β2m) of stabilized MHC complexes. The assay was performed as generally described in Rodenko et al. (Rodenko et al., 2006).
96 well MAXISorp plates (NUNC) were coated over night with 2ug/ml streptavidin in PBS at room temperature, washed 4× and blocked for1h at 37° C. in 2% BSA containing blocking buffer. Refolded HLA-A*02:01/MLA-001 monomers served as standards, covering the range of 15-500 ng/ml. Peptide-MHC monomers of the UV-exchange reaction were diluted 100 fold in blocking buffer. Samples were incubated for 1h at 37° C., washed four times, incubated with 2 ug/ml HRP conjugated anti-β2m for 1h at 37° C., washed again and detected with TMB solution that is stopped with […]. Absorption was measured at 450 nm. Candidate peptides that show a high exchange yield (preferably higher than 50%, most preferred higher than 75 %) are generally preferred for a generation and production of antibodies or fragments thereof, and/or T cell receptors or fragments thereof, as they show sufficient avidity to the MHC molecules and prevent dissociation of the MHC complexes.

Row | peptide exchange yield [%] | Binder
1 | 50 to 75 | LLNDRIWLA [peptide LLNDRIWLA (SEQ ID NO: 144)]
2 | 20 to 50 | ILYQTVTGL [peptide ILYQTVTGL (SEQ ID NO: 119)]
3 | 50 to 75 | YALDLSTFL [peptide YALDLSTFL (SEQ ID NO: 105)]
4 | 50 to 75 | RVLPPSALQSV [peptide RVLPPSALQSV (SEQ ID NO: 124)]
5 | 50 to 75 | LLNEILEQV [peptide LLNEILEQV (SEQ ID NO: 140)]
6 | 50 to 75 | ALLGGGPYML [peptide ALLGGGPYML (SEQ ID NO: 107)]
7 | 20 to 50 | ILYDLQQNL [peptide ILYDLQQNL (SEQ ID NO: 113)]
8 | 20 to 50 | KLLDVVHPA [peptide KLLDWHPA (SEQ ID NO: 131)]
9 | 50 to 75 | SLMGMVLKL [peptide SLMGMVLKL (SEQ ID NO: 122)]
10 | 50 to 75 | KLPSETIFVGC [peptide KLPSETIFVGC (SEQ ID NO: 154)]
11 | 20 to 50 | MLDDRAYLV [peptide MLDDRAYLV (SEQ ID NO: 128)]
12 | 50 to 75 | SLIERDLKL [peptide SLIERDLKL (SEQ ID NO: 157)]
13 | 10 to 20 | TAVGHALVL [peptide TAVGHALVL (SEQ ID NO: 114)]
14 | ≥ 75 | SLMMTIINL [peptide SLMMTIINL (SEQ ID NO: 156)]
15 | 20 to 50 | RTFEKIEEV [peptide RTFEKIEEV (SEQ ID NO: 133)]
16 | 50 to 75 | LLADLKTMV [peptide LLADLKTMV (SEQ ID NO: 118)]
17 | ≥ 75 | GVAGGSILKGV [peptide GVAGGSILKGV (SEQ ID NO: 134)]

Row | peptide exchange yield [%] | Binder
18 | 20 to 50 | VLVDDDGIKVV [peptide … (SEQ ID NO: 159)]
19 | 50 to 75 | SLVQRVETI (also called ECT2-001) [peptide SLVQRVETI (SEQ ID NO: 142)]
20 | ≥ 75 | KMLDEILLQL [peptide KMLDEILLQL (SEQ ID NO: 164)]
21 | 50 to 75 | SAQGSDVSLTACKV [peptide SAQGSDVSLTACKV (SEQ ID NO: 151)]
22 | 50 to 75 | FLKNELDNV [peptide FLKNELDNV (SEQ ID NO: 161)]
23 | 50 to 75 | ILFSEDSTKLFV [peptide ILFSEDSTKLFV (SEQ ID NO: 153)]
24 | 20 to 50 | GLGGSQLIDTHL [peptide GLGGSQLIDTHL (SEQ ID NO: 130)]
25 | 50 to 75 | VLLNEILEQV [peptide VLLNEILEQV (SEQ ID NO: 139)]
26 | 50 to 75 | SLFDVSHML [peptide SLFDVSHML (SEQ ID NO: 115)]
27 | 50 to 75 | ILLTIKDDTIYL [peptide ILLTIKDDTIYL (SEQ ID NO: 104)]
28 | 50 to 75 | YLFEKTFNM [peptide YLFEKTFNM (SEQ ID NO: 11)]
29 | 50 to 75 | RLLENMTEVV [peptide … (SEQ ID NO: 148)]
30 | 50 to 75 | KLMDYIDEL [peptide KLMDYIDEL (SEQ ID NO: 162)]
31 | ≥ 75 | AVIEHLERL [peptide AVIEHLERL (SEQ ID NO: 141)]
32 | 50 to 75 | RLADLEALKV [peptide RLADLEALKV (SEQ ID NO: 150)]
33 | 50 to 75 | KQFEGTVEI [peptide KQFEGTVEI (SEQ ID NO: 138)]
34 | 20 to 50 | KLQEEIPVL [peptide KLQEEIPVL (SEQ ID NO: 135)]

The next lines start with the binder.

Row | Binder | peptide exchange yield [%]
35 | GLLDPSVFHV [peptide GLLDPSVFHV (SEQ ID NO: 158)] | 50 to 75
36 | KLGQVLIYL [peptide KLGQVLIYL (SEQ ID NO: 112)] | 20 to 50
37 | FLDKPEDVLL [peptide FLDKPEDVLL (SEQ ID NO: 14)] | 20 to 50
38 | QLTEIKPLL [peptide QLTEIKPLL (SEQ ID NO: 137)] | 50 to 75
39 | ALIKQLFEA (also called ZNF-002) [peptide ALIKQLFEA (SEQ ID NO: 1)] | 50 to 75
40 | KLSDVWKEL [peptide KLSDVWKEL (SEQ ID NO: 143)] | 50 to 75
41 | LVYQFVHPI [peptide LVYQFVHPI (SEQ ID NO: 116)] | 20 to 50
42 | VLIDVLKEL [peptide VLIDVLKEL (SEQ ID NO: 129)] | 50 to 75
43 | SLAELVPGVGGI [peptide SLAELVPGVGGI (SEQ ID NO: 108)] | 50 to 75
44 | TLQPVDNSTISL [peptide TLQPVDNSTISL (SEQ ID NO: 117)] | 20 to 50
45 | LLLEVVKQV (also called LLLEVVKQV) [peptide LLLEWKQV (SEQ ID NO: 145)] | 50 to 75
46 | SLAPNIISQL [peptide SLAPNIISQL (SEQ ID NO: 121)] | 50 to 75
47 | ALSDETWGL [peptide ALSDETWGL (SEQ ID NO: 146)] | 20 to 50
48 | KTLERSYLL [peptide KTLERSYLL (SEQ ID NO: 123)] | 20 to 50
49 | RLLGEEVVRV (also called RLLGEEVVRV) [peptide … (SEQ ID NO: 155)] | 50 to 75
50 | ALDGDQMEL [peptide ALDGDQMEL (SEQ ID NO: 109)] | 20 to 50
51 | RLLHEVQEL [peptide RLLHEVQEL (SEQ ID NO: 163)] | 50 to 75

Row | Binder | peptide exchange yield [%]
52 | VLYEGVDEV [peptide VLYEGVDEV (SEQ ID NO: 120)] | 20 to 50
53 | ALLNAILHSA [peptide ALLNAILHSA (SEQ ID NO: 132)] | 50 to 75
54 | KLLAVIHEL (also called RAD54B-002) [peptide KLLAVIHEL (SEQ ID NO: 152)] | 20 to 50
55 | RMYNKIFAI [peptide RMYNKIFAI (SEQ ID NO: 10)] | 50 to 75
56 | FLLAEDTKV [peptide FLLAEDTKV (SEQ ID NO: 13)] | 50 to 75
57 | LLGELPRLLLL [peptide LLGELPRLLLL (SEQ ID NO: 110)] | 50 to 75
58 | YQFDKVGILTL [peptide YQFDKVGILTL (SEQ ID NO: 149)] | 50 to 75
59 | SLISEKILL [peptide SLISEKILL (SEQ ID NO: 106)] | 50 to 75
60 | RLAELTVDEFLA [peptide RLAELTVDEFLA (SEQ ID NO: 127)] | 50 to 75
61 | TLAKYLMEL [peptide TLAKYLMEL (SEQ ID NO: 126)] | 50 to 75
62 | KLFDIFSQQV [peptide KLFDIFSQQV (SEQ ID NO: 136)] | 50 to 75
63 | KLGDFGLLVEL [peptide KLGDFGLLVEL (SEQ ID NO: 125)] | ≥ 75
64 | TLTELRAFL [peptide TLTELRAFL (SEQ ID NO: 147)] | ≥ 75
65 | KLLEFDQLQL [peptide KLLEFDQLQL (SEQ ID NO: 160)] | 50 to 75
66 | LQLDKEFQL [peptide LQLDKEFQL (SEQ ID NO: 15)] | 50 to 75
67 | ALVQGILERV [peptide ALVQGILERV (SEQ ID NO: 12)] | 50 to 75
